The values below come from paper PMC3217864.

This experiment addresses CD91 (human (endogenous in PBMCs)) (UniProt Q07954).
Chain of UniProt Q07954 (Q07954 20-4544): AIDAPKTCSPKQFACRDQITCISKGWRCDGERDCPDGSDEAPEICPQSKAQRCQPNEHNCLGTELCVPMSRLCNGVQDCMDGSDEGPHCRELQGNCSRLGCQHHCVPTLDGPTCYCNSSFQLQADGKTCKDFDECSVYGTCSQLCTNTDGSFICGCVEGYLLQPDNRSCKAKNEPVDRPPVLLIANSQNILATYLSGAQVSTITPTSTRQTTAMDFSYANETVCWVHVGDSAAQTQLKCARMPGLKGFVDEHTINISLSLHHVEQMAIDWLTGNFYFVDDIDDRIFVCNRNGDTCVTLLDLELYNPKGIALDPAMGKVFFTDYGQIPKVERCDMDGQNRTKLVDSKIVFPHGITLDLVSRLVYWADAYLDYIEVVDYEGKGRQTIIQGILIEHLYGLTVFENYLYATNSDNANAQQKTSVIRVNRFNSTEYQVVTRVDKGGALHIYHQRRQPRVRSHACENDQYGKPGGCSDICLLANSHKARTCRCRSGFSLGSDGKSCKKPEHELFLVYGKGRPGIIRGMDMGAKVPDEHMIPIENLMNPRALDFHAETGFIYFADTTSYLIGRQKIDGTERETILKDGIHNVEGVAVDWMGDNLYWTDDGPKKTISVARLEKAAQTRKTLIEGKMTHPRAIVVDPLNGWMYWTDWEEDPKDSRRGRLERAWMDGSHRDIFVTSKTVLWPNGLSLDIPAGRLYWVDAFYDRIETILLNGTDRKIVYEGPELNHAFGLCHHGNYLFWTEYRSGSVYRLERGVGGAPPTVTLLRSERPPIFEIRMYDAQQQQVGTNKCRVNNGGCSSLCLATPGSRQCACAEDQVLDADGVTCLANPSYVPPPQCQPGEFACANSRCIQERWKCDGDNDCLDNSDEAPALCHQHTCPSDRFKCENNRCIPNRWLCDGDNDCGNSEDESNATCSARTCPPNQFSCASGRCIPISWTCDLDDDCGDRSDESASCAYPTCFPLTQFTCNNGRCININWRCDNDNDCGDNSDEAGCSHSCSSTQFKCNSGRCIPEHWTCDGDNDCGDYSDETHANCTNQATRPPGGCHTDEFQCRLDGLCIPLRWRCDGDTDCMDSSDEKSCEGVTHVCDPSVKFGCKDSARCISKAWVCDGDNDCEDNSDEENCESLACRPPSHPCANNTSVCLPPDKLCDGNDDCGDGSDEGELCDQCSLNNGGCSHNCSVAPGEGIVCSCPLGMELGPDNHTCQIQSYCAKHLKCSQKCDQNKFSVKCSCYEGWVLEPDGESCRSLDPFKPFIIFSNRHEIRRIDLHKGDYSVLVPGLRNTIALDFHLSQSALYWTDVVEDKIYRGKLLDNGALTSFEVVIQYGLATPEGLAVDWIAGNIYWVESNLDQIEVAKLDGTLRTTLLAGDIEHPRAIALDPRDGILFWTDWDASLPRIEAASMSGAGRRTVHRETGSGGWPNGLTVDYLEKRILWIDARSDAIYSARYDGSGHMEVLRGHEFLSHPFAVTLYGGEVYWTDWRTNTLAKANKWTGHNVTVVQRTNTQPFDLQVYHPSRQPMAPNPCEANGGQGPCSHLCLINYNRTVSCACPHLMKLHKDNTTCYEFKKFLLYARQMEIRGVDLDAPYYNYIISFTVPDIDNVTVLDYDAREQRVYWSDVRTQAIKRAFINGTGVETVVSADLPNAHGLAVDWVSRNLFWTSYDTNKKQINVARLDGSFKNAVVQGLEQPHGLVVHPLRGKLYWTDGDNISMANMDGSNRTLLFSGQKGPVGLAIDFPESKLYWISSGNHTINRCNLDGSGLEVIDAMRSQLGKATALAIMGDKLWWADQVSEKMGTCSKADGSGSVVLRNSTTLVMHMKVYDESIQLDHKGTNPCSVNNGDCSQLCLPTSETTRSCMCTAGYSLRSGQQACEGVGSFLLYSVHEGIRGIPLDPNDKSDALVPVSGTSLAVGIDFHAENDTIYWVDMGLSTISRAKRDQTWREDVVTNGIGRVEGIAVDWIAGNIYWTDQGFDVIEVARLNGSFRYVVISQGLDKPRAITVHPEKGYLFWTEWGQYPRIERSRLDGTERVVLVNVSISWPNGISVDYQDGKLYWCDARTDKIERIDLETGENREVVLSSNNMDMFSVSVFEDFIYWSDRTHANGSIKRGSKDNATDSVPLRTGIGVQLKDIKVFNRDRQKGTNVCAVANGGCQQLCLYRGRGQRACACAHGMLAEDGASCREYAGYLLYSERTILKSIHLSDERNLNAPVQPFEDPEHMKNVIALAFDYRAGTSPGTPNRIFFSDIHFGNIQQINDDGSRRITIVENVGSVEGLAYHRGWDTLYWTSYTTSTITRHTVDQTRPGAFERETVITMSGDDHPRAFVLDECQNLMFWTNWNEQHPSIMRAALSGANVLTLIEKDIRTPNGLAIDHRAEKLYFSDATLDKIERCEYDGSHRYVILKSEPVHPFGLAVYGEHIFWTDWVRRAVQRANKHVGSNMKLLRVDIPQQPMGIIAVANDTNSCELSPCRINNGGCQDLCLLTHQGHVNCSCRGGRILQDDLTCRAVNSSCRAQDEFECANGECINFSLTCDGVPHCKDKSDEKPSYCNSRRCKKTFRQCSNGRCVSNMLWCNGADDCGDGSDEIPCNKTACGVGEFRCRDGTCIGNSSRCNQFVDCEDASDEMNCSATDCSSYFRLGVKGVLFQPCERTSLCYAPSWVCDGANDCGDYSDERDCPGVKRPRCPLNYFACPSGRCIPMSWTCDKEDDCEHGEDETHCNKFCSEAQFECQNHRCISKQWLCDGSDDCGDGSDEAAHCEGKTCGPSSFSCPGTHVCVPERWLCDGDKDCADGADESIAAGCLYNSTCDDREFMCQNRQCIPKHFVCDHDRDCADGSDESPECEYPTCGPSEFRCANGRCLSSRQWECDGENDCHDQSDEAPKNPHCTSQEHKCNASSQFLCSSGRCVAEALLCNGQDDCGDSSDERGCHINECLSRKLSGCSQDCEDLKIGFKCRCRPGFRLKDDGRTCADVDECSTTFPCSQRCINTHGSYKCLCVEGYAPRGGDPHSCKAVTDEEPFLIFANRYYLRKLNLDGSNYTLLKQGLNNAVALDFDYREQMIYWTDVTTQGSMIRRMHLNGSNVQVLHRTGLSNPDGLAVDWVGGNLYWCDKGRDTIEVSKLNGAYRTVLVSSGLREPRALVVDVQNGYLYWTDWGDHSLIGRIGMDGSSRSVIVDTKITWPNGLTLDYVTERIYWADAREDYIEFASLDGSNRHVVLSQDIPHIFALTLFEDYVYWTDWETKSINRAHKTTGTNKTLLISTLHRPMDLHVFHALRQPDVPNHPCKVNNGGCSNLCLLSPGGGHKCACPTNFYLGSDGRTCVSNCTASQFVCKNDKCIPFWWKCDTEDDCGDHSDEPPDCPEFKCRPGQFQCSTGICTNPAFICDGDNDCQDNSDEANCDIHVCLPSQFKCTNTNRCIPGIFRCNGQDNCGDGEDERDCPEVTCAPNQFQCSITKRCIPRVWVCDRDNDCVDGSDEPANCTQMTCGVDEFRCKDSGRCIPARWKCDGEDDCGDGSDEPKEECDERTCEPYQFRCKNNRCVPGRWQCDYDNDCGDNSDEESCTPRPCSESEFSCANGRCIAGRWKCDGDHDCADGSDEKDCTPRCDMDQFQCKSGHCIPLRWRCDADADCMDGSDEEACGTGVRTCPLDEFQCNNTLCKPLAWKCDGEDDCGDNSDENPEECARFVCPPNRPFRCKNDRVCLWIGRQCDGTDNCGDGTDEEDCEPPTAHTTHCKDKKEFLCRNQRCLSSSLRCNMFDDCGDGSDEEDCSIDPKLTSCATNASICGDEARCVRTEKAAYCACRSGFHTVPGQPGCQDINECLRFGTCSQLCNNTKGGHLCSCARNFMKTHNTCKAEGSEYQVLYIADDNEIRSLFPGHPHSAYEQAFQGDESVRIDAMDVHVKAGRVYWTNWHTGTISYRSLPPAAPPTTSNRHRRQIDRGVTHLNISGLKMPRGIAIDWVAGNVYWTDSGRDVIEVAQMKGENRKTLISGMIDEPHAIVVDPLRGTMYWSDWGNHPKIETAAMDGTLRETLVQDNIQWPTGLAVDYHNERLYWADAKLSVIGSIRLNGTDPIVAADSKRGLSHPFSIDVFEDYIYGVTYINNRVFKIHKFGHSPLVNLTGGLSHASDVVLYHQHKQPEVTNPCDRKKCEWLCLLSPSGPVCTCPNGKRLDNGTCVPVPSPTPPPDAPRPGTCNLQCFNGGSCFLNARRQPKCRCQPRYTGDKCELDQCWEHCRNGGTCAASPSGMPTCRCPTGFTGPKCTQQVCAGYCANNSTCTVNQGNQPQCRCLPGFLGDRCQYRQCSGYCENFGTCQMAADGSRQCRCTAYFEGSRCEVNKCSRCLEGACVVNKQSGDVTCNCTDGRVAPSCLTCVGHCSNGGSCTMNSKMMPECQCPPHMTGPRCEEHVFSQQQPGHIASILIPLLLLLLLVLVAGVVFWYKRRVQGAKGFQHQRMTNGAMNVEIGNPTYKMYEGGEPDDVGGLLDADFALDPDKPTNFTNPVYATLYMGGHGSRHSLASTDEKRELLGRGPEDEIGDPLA

“HSP70/CMVpp65(495-503)-peptide complex (from UniProt P0DMV8 1-641)” gave a reduction of proliferation of CD8+ T cells (CFSE dilution, 4 days) in PBMCs stimulated with 10 μg/ml HSP70/CMV-PC after 1 h pulse with 500 μg/ml α2-macroglobulin (A2M), the natural ligand of CD91 of 86.9%.
